The source of these data is the Immune Epitope Database (IEDB).

Among the targets are HLA-A*02:03; HLA-A*02:01; HLA-A*02:02; HLA-A*68:02; HLA-A*02:06.
What all share (assay): IEDB peptide-MHC binding, purified MHC/competitive/radioactivity; ≥ and ≤ were set here for values at or beyond the usual limits of such assays
Where [1] appears, read: source organism: Vaccinia virus WR.
Where [2] appears, read: source organism: Influenza A virus.
The mark [3] stands for this setting: source organism: Mammarenavirus choriomeningitidis.

Broadly, the IC50 is the midpoint of a concentration-inhibition curve. As to NIVTFINDYA, the IC50 was 245 nM in the assay with HLA-A*02:03 (setting [1]); 827 nM with HLA-A*02:01 (setting [1]); 62 nM in the assay with HLA-A*02:02 (setting [1]); 82 nM in the assay with HLA-A*68:02 (setting [1]); 351 nM with HLA-A*02:06 (setting [1]).

NLDDVYSYI: the IC50 was 96 nM in the assay with HLA-A*02:03 (setting [1]); 3.8 nM in the assay with HLA-A*02:01 (setting [1]); 0.72 nM with HLA-A*02:02 (setting [1]); 1030 nM with HLA-A*68:02 (setting [1]); 92 nM with HLA-A*02:06 (setting [1]).

Regarding NLETYTRPEI, the IC50 in the assay with HLA-A*02:03 (setting [1]) was 1500 nM; with HLA-A*02:01 (setting [1]), 1220 nM; in the assay with HLA-A*02:02 (setting [1]), 539 nM; in the assay with HLA-A*68:02 (setting [1]), 2080 nM; in the assay with HLA-A*02:06 (setting [1]), 636 nM.

Consider NLFDIPLLT, for which the IC50 in the assay with HLA-A*02:03 (setting [1]) amounted to 36 nM; in the assay with HLA-A*02:01 (setting [1]) it was 10 nM; in the assay with HLA-A*02:02 (setting [1]), 135 nM; with HLA-A*68:02 (setting [1]) it was 2890 nM; in the assay with HLA-A*02:06 (setting [1]) it was 1540 nM.

Turning to NLFEKFFPSS, the IC50 worked out at 362 nM with HLA-A*02:03 (setting [2]); 271 nM with HLA-A*02:01 (setting [2]); 415 nM with HLA-A*02:02 (setting [2]); 360 nM with HLA-A*68:02 (setting [2]); 28 nM with HLA-A*02:06 (setting [2]).

Consider NLILNFLDWI, for which the half-inhibitory concentration (IC50) with HLA-A*02:03 (setting [1]) was 283 nM; in the assay with HLA-A*02:01 (setting [1]) it was 4390 nM; with HLA-A*02:02 (setting [1]), 1690 nM; with HLA-A*68:02 (setting [1]), 3710 nM; in the assay with HLA-A*02:06 (setting [1]) it was 443 nM.

Regarding NLLLLFVTI, the IC50 was found to be 1600 nM with HLA-A*02:03 (source organism: SARS-CoV1); 201 nM with HLA-A*02:01 (source organism: SARS-CoV1); 436 nM in the assay with HLA-A*02:02 (source organism: SARS-CoV1); 755 nM with HLA-A*68:02 (source organism: SARS-CoV1); 456 nM in the assay with HLA-A*02:06 (source organism: SARS-CoV1).

Take NLTQLFKYV: the IC50 with HLA-A*02:03 (setting [1]) was determined as 238 nM; in the assay with HLA-A*02:01 (setting [1]), 1180 nM; with HLA-A*02:02 (setting [1]), 320 nM; in the assay with HLA-A*68:02 (setting [1]) it was 4340 nM; with HLA-A*02:06 (setting [1]), 657 nM.

Turning to NLWNTFTRL, the IC50 in the assay with HLA-A*02:03 (source organism: SARS-CoV1) amounted to 194 nM; with HLA-A*02:01 (source organism: SARS-CoV1) it was 6.9 nM; with HLA-A*02:02 (source organism: SARS-CoV1), 24 nM; with HLA-A*68:02 (source organism: SARS-CoV1) it was 391 nM; in the assay with HLA-A*02:06 (source organism: SARS-CoV1), 166 nM.

For NLYKVYNGI, the IC50 in the assay with HLA-A*02:03 (setting [1]) is 62 nM; with HLA-A*02:01 (setting [1]), 451 nM; in the assay with HLA-A*02:02 (setting [1]), 408 nM; with HLA-A*68:02 (setting [1]) it was 1610 nM; with HLA-A*02:06 (setting [1]) it was 817 nM.

On to NMCNSDVSV, for which the IC50 with HLA-A*02:03 (setting [1]) was determined as 30 nM; with HLA-A*02:01 (setting [1]), 88 nM; with HLA-A*02:02 (setting [1]) it was 80 nM; with HLA-A*68:02 (setting [1]) it was 202 nM; with HLA-A*02:06 (setting [1]) it was 97 nM.

As to NMDWRSLTQV, the IC50 came out at 17 nM in the assay with HLA-A*02:03 (setting [1]); 4.2 nM with HLA-A*02:01 (setting [1]); 100 nM in the assay with HLA-A*02:02 (setting [1]); 826 nM with HLA-A*68:02 (setting [1]); 1.7 nM in the assay with HLA-A*02:06 (setting [1]).

NMINKLYGYA: the IC50 with HLA-A*02:03 (setting [1]) stood at 0.44 nM; with HLA-A*02:01 (setting [1]), 88 nM; in the assay with HLA-A*02:02 (setting [1]), 1.6 nM; in the assay with HLA-A*68:02 (setting [1]) it was 292 nM; with HLA-A*02:06 (setting [1]), 137 nM.

Consider NMLDDFSAGA, for which the IC50 with HLA-A*02:03 (setting [1]) stood at 161 nM; with HLA-A*02:01 (setting [1]), 190 nM; with HLA-A*02:02 (setting [1]), 308 nM; with HLA-A*68:02 (setting [1]) it was 2600 nM; in the assay with HLA-A*02:06 (setting [1]), 242 nM.

With NMLRIMASL, the concentration for half-maximal inhibition (IC50) with HLA-A*02:03 (source organism: SARS-CoV1) is 38 nM; with HLA-A*02:01 (source organism: SARS-CoV1), 68 nM; with HLA-A*02:02 (source organism: SARS-CoV1), 3.4 nM; with HLA-A*68:02 (source organism: SARS-CoV1), 1310 nM; with HLA-A*02:06 (source organism: SARS-CoV1), 50 nM.

NSLILLECFV: the IC50 in the assay with HLA-A*02:03 (setting [3]) was 47 nM; with HLA-A*02:01 (setting [3]) it was 7.4 nM; with HLA-A*02:02 (setting [3]), 1.2 nM; with HLA-A*68:02 (setting [3]) it was 43 nM; in the assay with HLA-A*02:06 (setting [3]), 4.2 nM.

As to NTCKPTILAT, the IC50 with HLA-A*02:03 (setting [1]) was determined as 248 nM; with HLA-A*02:01 (setting [1]), 4410 nM; with HLA-A*02:02 (setting [1]), 460 nM; with HLA-A*68:02 (setting [1]) it was 1640 nM; with HLA-A*02:06 (setting [1]), 3920 nM.

Regarding NTDHPLSINV, the IC50 turned out to be 583 nM with HLA-A*02:03 (setting [1]); 307 nM in the assay with HLA-A*02:01 (setting [1]); 388 nM with HLA-A*02:02 (setting [1]); 0.67 nM in the assay with HLA-A*68:02 (setting [1]); 1.6 nM with HLA-A*02:06 (setting [1]).

Turning to NTIAVITETI, the IC50 in the assay with HLA-A*02:03 (setting [1]) stood at 56 nM; with HLA-A*02:01 (setting [1]), 108 nM; in the assay with HLA-A*02:02 (setting [1]) it was 50 nM; with HLA-A*68:02 (setting [1]) it was 2.1 nM; with HLA-A*02:06 (setting [1]), 784 nM.

With NTIDKSSPL, the IC50 with HLA-A*02:03 (setting [1]) came to 27 nM; with HLA-A*02:01 (setting [1]) it was 972 nM; with HLA-A*02:02 (setting [1]) it was 82 nM; with HLA-A*68:02 (setting [1]), 5.7 nM; in the assay with HLA-A*02:06 (setting [1]), 19 nM.

Consider NTISGNIYSA, for which the IC50 with HLA-A*02:03 (setting [1]) was 314 nM; with HLA-A*02:01 (setting [1]), 640 nM; with HLA-A*02:02 (setting [1]), 269 nM; with HLA-A*68:02 (setting [1]) it was 0.19 nM; with HLA-A*02:06 (setting [1]) it was 393 nM.

As to NTTTFITVLT, the IC50 amounted to 596 nM with HLA-A*02:03 (setting [1]); 559 nM with HLA-A*02:01 (setting [1]); 1960 nM in the assay with HLA-A*02:02 (setting [1]); 34 nM in the assay with HLA-A*68:02 (setting [1]); 600 nM with HLA-A*02:06 (setting [1]).

Regarding NTVGMSIVCI, the IC50 is 1540 nM in the assay with HLA-A*02:03 (setting [1]); 3260 nM in the assay with HLA-A*02:01 (setting [1]); 3020 nM in the assay with HLA-A*02:02 (setting [1]); 198 nM with HLA-A*68:02 (setting [1]); 1210 nM with HLA-A*02:06 (setting [1]).
